Results on 2 molecules are retold here after patent US20090318342A1, “Compounds” (IMPERIAL INNOVATIONS LIMITED, priority 2005, published 2009).

The subject of experiment [1] is porcine articular cartilage. As to the kind of experiment: Retinoic acid-stimulated porcine articular cartilage, GAG release. In kind it is cell-based. Here is the method: Porcine articular cartilage from the metacarpophalangeal joints of 3-9 month old pigs is dissected into small shavings approximately 3 mm long and 2-3 mm wide. After dissection, the cartilage is allowed to rest for 24 h at 37° C. under 5% CO2 in DMEM containing penicillin-streptomycin, amphotericin B, and 5% fetal calf serum. The medium is then replaced with fresh media and the cartilage is rested for a further 24-48 h. Each cartilage piece is then placed in one well of a round bottom 96-well plate with 200 μl of serum-free DMEM with or without 10-100 ng/ml IL-1α or 1 μM retinoic acid and various concentrations of each TIMP-3 mutant. After 3 days, all of the conditioned media are harvested and stored at −20° C. until use.
GAG released into the conditioned media is measured in duplicate using a modification of the dimethylmethylene blue (DMMB) assay as described in Farndale et al.. Shark chondroitin sulfate (0-2.62 μg) is used as standard. The % of total GAG released into the medium is calculated as follows: % of total GAG released=(total GAG in the medium)/(total GAG in the medium+total GAG remaining in the cartilage).

In experiment [2] the target is catalytic domain of membrane-type 1 MMP (MMP-14(CD)). Particulars: Table I; data taken from ref. 27; read-out: Ki(app) MMP-14(CD); cited from earlier work.
The target is the same in experiment [3]. As to the kind of experiment: Enzyme inhibition kinetic study, MMP-14. The format is biochemical. Particulars: Table I; enzyme 5 nM; pH 7.5; read-out: Ki(app) MMP-14(CD). Here is the method:
FIG. 2. Inhibition of MMP and TACE by N-TIMP-3 and its mutants. A. Inhibition of MMP-14(CD) by wild-type and mutated N-TIMP-3. Open circles, wild-type N-TIMP-3; closed circles, T2G; and open squares, -1A. B. Comparison of the inhibition of TACE by wild-type N-TIMP-3, N-TIMP-1 and TAPI-2. The inhibitors were incubated with 0.5 nM TACE for 3 hr at room temperature, and the residual enzyme activity was measured with 10 μM Substrate III (R&D Systems). The assays were performed at pH 9.0 at a final NaCl concentration of 1 mM. Open circles, N-TIMP-3; closed circles, TAPI-2; and open squares, N-TIMP-1. C. Inhibition of TACE (0.5 nM) by wild-type and mutated N-TIMP-3. Open circles, wild-type inhibitor; closed circles, T2G; and open squares, -1A.
Enzyme inhibition kinetic studies—Inhibition kinetic studies for MMPs and TACE were carried out as described previously (19, 27) with modifications. Purified N-TIMP-3 and mutants were dialyzed against 20 mM Tris-HCl (pH 7.0), 50 mM NaCl containing 20% glycerol, centrifuged at 14,000 rpm for 10 min to remove any precipitate, and protein concentration was re-measured before conducting inhibition assays. […]
where v is the experimentally determined reaction velocity, v0 is the uninhibited activity, E is enzyme concentration, I is inhibitor concentration, K is the apparent inhibition constant (Ki^(app)) and h is the Hill coefficient. […]

Experiment [4] concerns the target T1, human ADAMTS-4 lacking the C-terminal spacer domain (Homo sapiens, UniProt O75173).
T1 construct: Recombinant human ADAMTS-4 lacking the C-terminal spacer domain; made in house
T1 sequence (O75173 213-685 limits assumed): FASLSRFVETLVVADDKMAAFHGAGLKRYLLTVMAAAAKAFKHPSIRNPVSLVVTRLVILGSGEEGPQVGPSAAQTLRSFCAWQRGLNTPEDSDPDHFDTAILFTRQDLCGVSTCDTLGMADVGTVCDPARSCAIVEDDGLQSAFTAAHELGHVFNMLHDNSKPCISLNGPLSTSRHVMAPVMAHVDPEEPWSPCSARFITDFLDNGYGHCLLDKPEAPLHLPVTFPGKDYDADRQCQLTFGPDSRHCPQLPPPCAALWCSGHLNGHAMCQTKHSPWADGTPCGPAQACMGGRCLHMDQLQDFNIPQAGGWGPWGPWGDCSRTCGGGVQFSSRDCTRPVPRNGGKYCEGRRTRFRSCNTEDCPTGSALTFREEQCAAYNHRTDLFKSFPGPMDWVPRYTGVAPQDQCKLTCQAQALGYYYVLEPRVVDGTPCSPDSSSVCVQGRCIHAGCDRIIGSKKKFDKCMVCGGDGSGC
As to the kind of experiment: ADAMTS-4 inhibition, bovine aggrecan digestion, anti-GELE Western blot. The format is biochemical. As to conditions: 0.5 nM ADAMTS-4, 1 mg/ml bovine aggrecan, 37° C., 2 h; read-out: Ki(app) ADAMTS-4. Here is the method: ADAMTS-4 lacking the spacer domain (0.5 nM) was incubated with N-TIMP-3 mutants at the concentration indicated for 30 min and then incubated with 1 mg/ml of bovine aggrecan at pH 7.5 for 2 h at 37° C. The reaction was terminated with 10 mM EDTA and samples were deglycosylated and subjected to Western blotting analysis using antibodies that recognise the fragments with the C-terminal GELE1480 as described by Little et al. The bands were quantified by densitometric analyses.
Recombinant human ADAMTS-4 lacking the C-terminal spacer domain was prepared and expressed as described (Kashimagi, M. et al. J. Biol. Chem. 279, 10109-10119, 2004), and bovine cartilage aggrecan was purified according to Hascall and Sajdesa (J. Biol. Chem. 244, 2384-2396, 1969). Antibody that recognized the fragment with the C-terminal GELE was described by Kashiwagi et al (2004). To examine the inhibition of ADAMTS-4 by (-1A) N-TIMP-3 and N-TIMP-3(T2G), 0.5 nM ADAMTS-4 was incubated with a various concentration of the inhibitor for 30 mins at room temperature and then with 1 mg/ml of bovine aggrecan at 37° C. for 2 h. […] The products were then precipated with 10 vol. of acetone and subjected to Western blotting analysis with the anti-GELE antibody as primary antibody and developed as described by Little et al. The staining intensity of the band was quantified by densitometric analysis.

Where two headings read alike, the source gives them in different places.

B1: N-TIMP-3: N-terminal inhibitory domain of TIMP-3 (residues 1 to 121), C-terminally His-tagged, wild-type (protein)
chain: CTCSPSHPQDAFCNSDIVIRAKVVGKKLVKEGPFGTLVYTIKQMKMYRGFTKMPHVQYIHTEASESLCGLKLEVNKYQYLLTGRVYDGKMYTGLCNFVERWDQLTLSQRKGLNYRYHLGCN
For the molecule B1, the “Inhibition of retinoic acid-stimulated GAG release” value in experiment [1] is listed as “inhibited by N-TIMP-3, but to a lesser extent compared with the IL-1α-stimulated cartilage”. Further, the Ki in experiment [2] is 0.8 ± 0.03 nM.

B2: -1A: N-TIMP-3 mutant with the addition of an N-terminal alanine extension (-1A) (protein)
chain: ACTCSPSHPQDAFCNSDIVIRAKVVGKKLVKEGPFGTLVYTIKQMKMYRGFTKMPHVQYIHTEASESLCGLKLEVNKYQYLLTGRVYDGKMYTGLCNFVERWDQLTLSQRKGLNYRYHLGCN
Turning to B2, the Ki in experiment [3] is 941 ± 206 nM; in experiment [4], 18 nM.
